Target: pICln (UniProt P54105 1-237)
Assay: pull-down

binding result: binds
B1: GST-PRMT5reg (domain or fragment)
chain: MAAMAVGGAGGSRVSSGRDLNCVPEIADTLGAVAKQGFDFLCMPVFHPRFKREFIQEPAKNRPGPQTRSDLLLSGRDWNTLIVGKLSPWIRPDSKVEKIRRNSEAAMLQELNFGAYLGLPAFLLPLNQEDNTNLARVLTNHIHTGHHSSMFWMRVPLVAPEDLRDDIIENAPTTHTEEYSGEEKTWMWWHNFRTLCDYSKRIAVALEIGADLPSNHVIDRWLGEPIKAAILPTSIFLTNKKGFPVLSKMHQRLIFRLLKLEVQFIITGTNHHSEKEFCSYLQYLEYLSQN

From publication PMC2755859 (The Journal of Biological Chemistry, 2009)
